This note sets out measurements from PMC8197658.

One data set concerns the target SALL4A (full-length) (Homo sapiens, UniProt Q9UJQ4 1-1053). Put plainly: EMSA.
The next data set deals with T1, SALL4 ZFC4 (UniProt Q9UJQ4 864-929).
T1 sequence: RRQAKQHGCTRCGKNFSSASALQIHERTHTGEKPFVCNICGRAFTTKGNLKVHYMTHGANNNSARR
The experiment in a line: ITC. On the technique in general: In ITC the heat of successive injections is recorded.

Chain of SALL4A (full-length) (Q9UJQ4 whole entry): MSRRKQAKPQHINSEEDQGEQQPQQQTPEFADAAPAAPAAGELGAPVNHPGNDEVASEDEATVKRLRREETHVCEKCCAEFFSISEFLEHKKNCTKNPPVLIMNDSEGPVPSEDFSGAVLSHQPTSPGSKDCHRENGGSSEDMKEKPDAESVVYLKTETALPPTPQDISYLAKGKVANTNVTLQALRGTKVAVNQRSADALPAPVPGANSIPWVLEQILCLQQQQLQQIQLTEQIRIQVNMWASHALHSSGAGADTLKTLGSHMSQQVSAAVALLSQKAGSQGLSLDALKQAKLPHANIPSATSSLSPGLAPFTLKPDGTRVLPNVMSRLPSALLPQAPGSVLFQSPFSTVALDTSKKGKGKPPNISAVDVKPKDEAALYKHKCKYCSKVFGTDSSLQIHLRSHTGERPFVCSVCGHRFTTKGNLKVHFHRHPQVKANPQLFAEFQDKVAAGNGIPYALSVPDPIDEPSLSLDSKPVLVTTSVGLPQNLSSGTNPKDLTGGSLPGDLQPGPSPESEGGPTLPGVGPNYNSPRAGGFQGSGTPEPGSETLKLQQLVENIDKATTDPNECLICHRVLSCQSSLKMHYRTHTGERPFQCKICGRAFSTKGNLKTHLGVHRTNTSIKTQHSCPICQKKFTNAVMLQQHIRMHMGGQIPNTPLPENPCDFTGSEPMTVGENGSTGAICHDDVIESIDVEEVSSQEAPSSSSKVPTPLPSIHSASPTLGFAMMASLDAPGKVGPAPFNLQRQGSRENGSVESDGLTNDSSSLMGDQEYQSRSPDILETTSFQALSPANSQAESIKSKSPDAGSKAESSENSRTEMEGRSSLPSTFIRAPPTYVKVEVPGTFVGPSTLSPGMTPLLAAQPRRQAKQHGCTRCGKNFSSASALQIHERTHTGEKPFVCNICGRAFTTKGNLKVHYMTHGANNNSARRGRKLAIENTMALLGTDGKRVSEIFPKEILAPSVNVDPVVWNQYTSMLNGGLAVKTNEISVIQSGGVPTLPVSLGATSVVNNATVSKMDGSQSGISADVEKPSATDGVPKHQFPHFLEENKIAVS

B1: KDM3A EMSA Mutant oligo (dsDNA)
DNA 1: TCTTCTTTTAACCTTCAAAA
DNA 2: TTTTGAAGGTTAAAAGAAGA
As to B1, in the data set with SALL4A (full-length), the binding result is reported as “no binding”.

B2: ITC Mutant oligo 2 (dsDNA)
DNA 1: GATAAACGCTTG
DNA 2: CAAGCGTTTATC
On to B2, for which the binding result in the data set with SALL4 ZFC4 is recorded as “no binding”.

B3: KDM3A EMSA WT oligo (dsDNA)
DNA 1: TCTTCATTTATCCTTCAAAA
DNA 2: TTTTGAAGGATAAATGAAGA
As to B3, in the data set with SALL4A (full-length), the binding result is listed as “binds”.

B4: ITC Mutant oligo 1 (dsDNA)
DNA 1: GAGTCGCTAATG
DNA 2: CATTAGCGACTC
In the case of B4, in the data set with SALL4 ZFC4, the binding result is “no binding”.
